Patent US6348311B1, “ATM kinase modulation for screening and therapies” (St. Jude Childre's Research Hospital, priority 1999, dated 2002)
Where no end group is shown, it is not given here.

Columns and labels:
Type in all cases: biochemical
[1] = target: T1, ATM kinase (Homo sapiens, UniProt Q13315); test: In vitro kinase assay, ATM with GST-peptide / GST-fusion substrates; details: for phosphorylation of GST-peptide substrate by ATM (in words): GST-conjugated 14 amino acid peptides; for Relative Phosphorylation (%) ATM: GST-peptide substrate, relative to the p53ser15 site; for phosphorylation by ATM in vitro (in words): larger GST-fusion fragments or full-length proteins as substrates;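 for all read-outs here: immunoprecipitated ATM incubated with [γ-32P]ATP at 30 °C for 20 min, substrates resolved by SDS-PAGE and radiolabel incorporation quantified by PhosphorImager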
T1 construct: The full-length cDNA encoding NH2-terminal, FLAG-tagged wild-type ATM; made in house; host or cells: 293T cells, transient transfection with pcDNA-FLAG-ATMwt, anti-FLAG M2 immunoprecipitate on beads

[2] = target: T2, ATR (Homo sapiens, UniProt Q13535); test: In vitro kinase assay, ATR with GST-peptide / GST-fusion substrates; details: for Relative Phosphorylation (%) ATR: GST-peptide substrate, relative to the p53ser15 site; for phosphorylation by ATR in vitro (in words): larger GST-fusion fragments or full-length proteins as substrates
T2 construct: made in house; host or cells: 293T cells, transient transfection with pBJF-FRPwt, anti-FLAG M2 immunoprecipitate
Protocol: (§1) FIGS. 1A, 1B, and 1C. Phosphorylation of GST-p53 mutant peptides (amino acids 9-21) by ATM, ATR, and DNA-PK in vitro. In vitro kinase assays with immunoprecipitated, transfected flag-tagged ATM (A) or ATR (B) or purified DNA-PK (C) were performed with GST-p53 peptides containing the amino acid substitutions indicated. The amount of 32P-labeled GST-peptides was quantitated with a PhosphorImager and was normalized for each of the kinases to the level of phosphorylation of wild-type GST-p53.
(§2) FIGS. 2A, 2B, and 2C. Phosphorylation of candidate targets of by ATM, ATR and DNA-PK in vitro. GST-peptides containing the putative target sequences were used as substrates for the kinase assay.
Transfection and Kinase Activity Assays. 293T cells were transiently transfected with 10 μg of either pcDNA-FLAG-ATMwt, pcDNA-FLAG-ATMkd, pBJF-FRPwt or pBJF-FRPkd (Cliby et al., EMBO J., 17:159, 1998) using calcium phosphate and harvested two days later. Cells were lysed through sonication in TGN buffer [50 mM Tris (pH 7.5), 50 mM glycerophosphate, 150 mM NaCl, 10% glycerol, 1% Tween 20, 1 mM NaF, 1 mM NaVO4, 1 mM PMSF, […] Pepstatin A, 5 μg/ml leupeptin, 10 μg/ml Aprotinin and 1 mM DTT] as described (Brunn et al., Science, 277:99-101,1997). After centrifugation at 13,000 ×g, 2 mg of extract were incubated with mouse IgG and protein A/G sepharose beads (Calbiochem). FLAG-tagged proteins were then immunoprecipitated with anti-FLAG M2 monoclonal antibody (Eastman Kodak Company) and protein A/G sepharose beads. Immunoprecipitates were washed twice with TGN buffer, once with 100 mM Tris (pH 7.5) plus 0.5 M LiCl, and twice with kinase buffer [10 mM Hepes (pH 7.5), 50 mM glycerophosphate, 50 mM NaCl, 10 mM MgCl2, 10 mM MnCl2, 5 μM ATP, and 1 mM DTT]. Kinase reactions were initiated by resuspending washed beads in 30 μl of kinase buffer containing 10 μCi [γ-^32P]ATP and 1 μg GSTp531-101 and incubated for 30 minutes at 30° C. Proteins were electrophoretically separated by SDS-polyacrylamide gel electrophoresis, transferred to nitrocellulose, and analyzed on a PhosphorImager. FLAG-tagged proteins and GSTp531-101 were subjected to immunoblotting with either anti-FLAG M2 antibody or monoclonal antibodies directed towards the NH2-terminus of p53 (Ab-2 and Ab-6, Calbiochem) as described (Siliciano et al., Genes Dev., 11:3471, 1997).
Phosphorylation of Ser^15 of p53 by ATM and ATR/FRP1 in vitro. […] Proteins from each reaction were separated by SDS polyacrylamide gel electrophoresis (7% gel), transferred to nitrocellulose, and analyzed either on a PhosphorImager or by immunoblotting. Amounts of FLAG-tagged ATM or ATR in each kinase reaction were measured by immunoblotting with anti-FLAG M2 (top panel) and amount of [γ^32P]phosphate incorporated into ATM or ATR during the reaction (lower panel). […] An upper immunoreactive band represents phosphorylated GSTp53 fusion protein. The same exposures were used for ATM, ATR/FRP1 and corresponding substrate proteins.
(§3) Plasmids and GST-fusion protein production. For GST fusion peptide expression vectors, complementary oligonucleotides encoding desired peptides (14 amino acids) were cloned into the BamHI/SmaI site of pGEX-2T (Pharmacia). The constructs were confirmed by restriction enzyme digests and DNA sequencing. To construct the larger GST-p95 (327-391) protein fragment, p95 DNA encoding amino acids 327-391 was amplified by PCR with Pfu polymerase using the following primers: 5′ sense,
In vitro kinase assays and immunoprecipitation. […] Cleared supernatants were immunoprecipitated with anti-Flag M2 antibody and protein A/G agarose, the beads were washed with TGN buffer followed by TGN buffer plus 0.5 M LiCl, and two washes with kinase buffer [20 mM HEPES (pH 7.5), 50 mM NaCl, 10 mM MgCl2, 1 mM dithiothreitol (DTT) and 10 mM MnCl2]. […] ATP and […] of GST-fusion substrate (GST-p53:1-101), in varying concentration of Mn^2+. […]

[3] = target: DNA-PK (Homo sapiens, UniProt P78527); test: In vitro kinase assay, purified DNA-PK with GST-peptide / GST-fusion substrates; details: for Relative Phosphorylation (%) DNA-PK: GST-peptide substrate, relative to the p53ser15 site
Protocol: as §1, §2, §3
In vitro kinase assays and immunoprecipitation. […] Cleared supernatants were immunoprecipitated with anti-Flag M2 antibody and protein A/G agarose, the beads were washed with TGN buffer followed by TGN buffer plus 0.5 M LiCl, and two washes with kinase buffer [20 mM HEPES (pH 7.5), 50 mM NaCl, 10 mM MgCl2, 1 mM dithiothreitol (DTT) and 10 mM MnCl2]. […] ATP and […] of GST-fusion substrate (GST-p53:1-101), in varying concentration of Mn^2+. The kinase reaction was conducted at 30° C. for 20 min and stopped by the addition of SDS-PAGE loading buffer. Proteins were separated on SDS-polyacrylamide gel electrophoresis (SDS-PAGE) and transferred to nitrocellulose. Radiolabeled proteins were visualized and quantitated on a Phosphorimager (Molecular Dynamics). Use of equivalent amounts of flag-tagged ATM or ATR in the different lanes was confirmed by immunoblotting with anti-flag antibody. In some reactions, either supercoiled DNA (pBluescript II KS, Stratagene) or linearized DNA (pBluescript II KS cut with EcoR1) was added ([…]). For endogenous ATM kinase reactions, endogenous ATM was immunoprecipitated from GM0536 lymphhoblasts with ATM monoclonal antibody (D16.11) in M buffer (PBS, 10% glycerol, 0.2% Tween 20, 0.3% NP-40, 1 mM NaF, 1 mM Na3VO4, 1 mM PMSF, 1x protease inhibitor mixture]. After washing with M buffer and kinase buffer, in vitro kinase reactions were carried out according to procedures described above. The DNA-PK in vitro kinase reaction was performed as previously described (Gottlieb and Jackson, 1993), using 20 ng each of DNA-PKcs or DNA-PK (20 ng DNA-PKcs premixed with 20 ng Ku 70/80).

T1 sequence (Q13315 whole entry, the tested form may be a part): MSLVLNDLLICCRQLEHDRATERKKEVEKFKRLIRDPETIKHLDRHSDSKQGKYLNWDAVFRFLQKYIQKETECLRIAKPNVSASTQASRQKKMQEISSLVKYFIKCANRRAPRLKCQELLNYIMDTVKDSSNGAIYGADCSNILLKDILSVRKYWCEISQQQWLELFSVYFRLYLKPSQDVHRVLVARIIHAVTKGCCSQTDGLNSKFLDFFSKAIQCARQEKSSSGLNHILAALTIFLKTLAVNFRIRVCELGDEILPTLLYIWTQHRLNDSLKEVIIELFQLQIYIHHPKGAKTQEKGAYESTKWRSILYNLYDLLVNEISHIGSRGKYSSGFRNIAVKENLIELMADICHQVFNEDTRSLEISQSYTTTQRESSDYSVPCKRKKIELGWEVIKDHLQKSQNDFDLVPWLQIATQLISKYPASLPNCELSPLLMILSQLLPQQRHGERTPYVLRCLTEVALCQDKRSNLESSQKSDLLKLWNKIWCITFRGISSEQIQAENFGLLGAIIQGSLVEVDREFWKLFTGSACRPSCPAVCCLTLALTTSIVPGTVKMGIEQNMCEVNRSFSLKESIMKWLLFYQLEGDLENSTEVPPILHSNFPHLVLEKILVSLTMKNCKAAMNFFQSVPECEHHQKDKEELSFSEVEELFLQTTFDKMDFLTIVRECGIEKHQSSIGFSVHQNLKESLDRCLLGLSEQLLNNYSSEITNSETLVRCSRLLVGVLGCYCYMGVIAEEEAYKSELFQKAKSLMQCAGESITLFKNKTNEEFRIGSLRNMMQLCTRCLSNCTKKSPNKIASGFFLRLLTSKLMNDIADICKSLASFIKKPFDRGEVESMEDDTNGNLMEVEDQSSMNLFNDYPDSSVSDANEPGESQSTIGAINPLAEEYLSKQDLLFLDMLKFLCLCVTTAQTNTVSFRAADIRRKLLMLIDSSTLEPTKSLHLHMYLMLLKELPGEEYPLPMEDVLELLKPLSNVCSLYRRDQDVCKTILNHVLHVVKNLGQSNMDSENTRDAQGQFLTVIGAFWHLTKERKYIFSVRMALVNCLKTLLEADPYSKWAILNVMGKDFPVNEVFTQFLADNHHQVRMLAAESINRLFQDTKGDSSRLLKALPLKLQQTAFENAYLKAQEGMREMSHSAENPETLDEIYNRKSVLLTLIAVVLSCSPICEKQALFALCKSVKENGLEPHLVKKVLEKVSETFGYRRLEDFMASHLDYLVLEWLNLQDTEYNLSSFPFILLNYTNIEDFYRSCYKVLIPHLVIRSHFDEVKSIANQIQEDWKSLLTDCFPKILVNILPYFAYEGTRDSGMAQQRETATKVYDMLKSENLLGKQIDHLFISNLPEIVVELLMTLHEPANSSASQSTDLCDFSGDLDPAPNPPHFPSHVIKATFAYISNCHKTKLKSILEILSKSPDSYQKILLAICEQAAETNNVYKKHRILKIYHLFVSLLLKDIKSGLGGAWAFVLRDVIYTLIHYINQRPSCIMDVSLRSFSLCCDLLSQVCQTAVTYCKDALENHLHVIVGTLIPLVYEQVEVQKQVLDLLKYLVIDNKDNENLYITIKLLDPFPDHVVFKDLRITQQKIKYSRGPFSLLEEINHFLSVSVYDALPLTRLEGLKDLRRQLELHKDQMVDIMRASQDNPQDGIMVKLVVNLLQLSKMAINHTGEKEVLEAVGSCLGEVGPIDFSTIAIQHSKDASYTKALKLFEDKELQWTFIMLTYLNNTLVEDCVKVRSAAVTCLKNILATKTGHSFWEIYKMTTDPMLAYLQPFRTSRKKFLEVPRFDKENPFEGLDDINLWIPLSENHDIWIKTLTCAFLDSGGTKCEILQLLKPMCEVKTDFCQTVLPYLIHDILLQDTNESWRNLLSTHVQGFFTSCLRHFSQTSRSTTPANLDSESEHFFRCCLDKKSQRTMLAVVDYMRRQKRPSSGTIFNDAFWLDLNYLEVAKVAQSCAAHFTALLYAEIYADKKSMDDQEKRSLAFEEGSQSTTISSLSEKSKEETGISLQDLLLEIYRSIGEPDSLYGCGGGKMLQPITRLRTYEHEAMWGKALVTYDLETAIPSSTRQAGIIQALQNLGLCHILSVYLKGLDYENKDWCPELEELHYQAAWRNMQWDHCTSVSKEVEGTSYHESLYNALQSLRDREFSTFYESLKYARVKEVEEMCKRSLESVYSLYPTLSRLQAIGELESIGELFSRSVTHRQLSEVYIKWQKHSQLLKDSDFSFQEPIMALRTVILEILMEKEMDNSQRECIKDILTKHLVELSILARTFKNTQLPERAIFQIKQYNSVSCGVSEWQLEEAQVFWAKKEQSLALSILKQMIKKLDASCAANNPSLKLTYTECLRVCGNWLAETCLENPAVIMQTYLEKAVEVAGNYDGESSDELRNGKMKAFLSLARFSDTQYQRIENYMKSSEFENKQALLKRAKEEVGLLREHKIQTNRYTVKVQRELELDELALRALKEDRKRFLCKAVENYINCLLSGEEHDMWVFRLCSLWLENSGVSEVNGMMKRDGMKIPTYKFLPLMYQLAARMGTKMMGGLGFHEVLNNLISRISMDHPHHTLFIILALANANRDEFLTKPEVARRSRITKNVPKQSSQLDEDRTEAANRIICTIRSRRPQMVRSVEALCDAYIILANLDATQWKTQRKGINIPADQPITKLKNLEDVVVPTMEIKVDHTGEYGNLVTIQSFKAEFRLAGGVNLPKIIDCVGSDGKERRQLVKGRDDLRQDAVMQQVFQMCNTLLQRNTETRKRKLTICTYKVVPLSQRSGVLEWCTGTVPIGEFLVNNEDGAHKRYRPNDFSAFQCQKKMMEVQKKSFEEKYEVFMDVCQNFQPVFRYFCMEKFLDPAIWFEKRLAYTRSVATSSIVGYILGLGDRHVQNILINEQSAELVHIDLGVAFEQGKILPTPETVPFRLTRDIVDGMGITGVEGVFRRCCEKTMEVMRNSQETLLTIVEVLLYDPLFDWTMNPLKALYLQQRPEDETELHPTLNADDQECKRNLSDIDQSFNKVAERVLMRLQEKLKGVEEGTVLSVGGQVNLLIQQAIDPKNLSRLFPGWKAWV

4EBP1 (Phas I): GST-peptide EPPMEASQSHLRNS (SEQ ID NO:9), S94 (also: GST fusion)
phosphorylation of GST-peptide substrate by ATM (in words) [1]: excellent in vitro substrate
Relative Phosphorylation (%) ATM [1]: 78%
Relative Phosphorylation (%) ATR [2]: 66%
Relative Phosphorylation (%) DNA-PK [3]: 10%

[Mn+2] [Mn^2+]
effect of addition on activity of endogenous ATM ([1]; endogenous ATM immunoprecipitated under mild conditions): dependent
effect of addition on ATM kinase activity ([1]; transfected flag-tagged ATM, GST-p53 (1-101) substrate): dependent
effect of addition on ATR kinase activity ([2]; transfected flag-tagged ATR, GST-p53 (1-101) substrate): dependent
effect of addition on DNA-PK activity ([3]; purified DNA-PK, GST-p53 (1-101) substrate): not altered

ATM S440: GST-peptide PLLMILSQLLPQQR (SEQ ID NO:24), S440 of ATM (also: GST fusion)
Relative Phosphorylation (%) ATM [1]: 33%
Relative Phosphorylation (%) ATR [2]: 55%
Relative Phosphorylation (%) DNA-PK [3]: 7%

ATM S2761: GST-peptide YKVVPLSQRSGVLE (SEQ ID NO:25), S2761 of ATM (also: GST fusion)
Relative Phosphorylation (%) ATM [1]: 3%
Relative Phosphorylation (%) ATR [2]: 22%
Relative Phosphorylation (%) DNA-PK [3]: <1%

BRCA1 (SQ1): GST-peptide SASLFSSQCSELED (SEQ ID NO:32), S1298 (also: GST fusion)
Relative Phosphorylation (%) ATM [1]: 2%
Relative Phosphorylation (%) ATR [2]: 38%
Relative Phosphorylation (%) DNA-PK [3]: 6%

BRCA1 (SQ2): GST-peptide DCSGLSSQSDILTT (SEQ ID NO:33), S1387 (also: GST fusion)
Relative Phosphorylation (%) ATM [1]: 42%
Relative Phosphorylation (%) ATR [2]: 35%
Relative Phosphorylation (%) DNA-PK [3]: 36%

BRCA1 (SQ3): GST-peptide SSEYPISQNPEGLS (SEQ ID NO:34), S1466 (also: GST fusion)
Relative Phosphorylation (%) ATM [1]: 8%
Relative Phosphorylation (%) ATR [2]: 33%
Relative Phosphorylation (%) DNA-PK [3]: 12%

BRCA2: GST-peptide KVSPYLSQFQQDKQ (SEQ ID NO:29), S2156 (also: GST fusion)
phosphorylation of GST-peptide substrate by ATM (in words) [1]: not by ATM
Relative Phosphorylation (%) ATM [1]: <1%
phosphorylation of GST-peptide substrate by ATR (in words) ([2]; GST-conjugated 14 amino acid peptides): phosphorylated by ATR
Relative Phosphorylation (%) ATR [2]: 132%
Relative Phosphorylation (%) DNA-PK [3]: <1%

CHK1 (SQ1): GST-peptide NVKYSSSQPEPRTG (SEQ ID NO:16), S317 (also: GST fusion)
Relative Phosphorylation (%) ATM [1]: 14%
Relative Phosphorylation (%) ATR [2]: 58%
Relative Phosphorylation (%) DNA-PK [3]: 2%

CHK1 (SQ2): GST-peptide VQGISFSQPTCPDH (SEQ ID NO:17), S345 (also: GST fusion)
Relative Phosphorylation (%) ATM [1]: 11%
Relative Phosphorylation (%) ATR [2]: 73%
Relative Phosphorylation (%) DNA-PK [3]: 20%

CUT1: GST-peptide GASPVLSQGVDPRS (SEQ ID NO:36), S1615 (also: GST fusion)
Relative Phosphorylation (%) ATM [1]: 9%
Relative Phosphorylation (%) ATR [2]: 20%
Relative Phosphorylation (%) DNA-PK [3]: 5%

CtIP: GST-peptide DPGADLSQYKMDVT (SEQ ID NO:44), S664 (also: GST fusion)
Relative Phosphorylation (%) ATM [1]: 12%
Relative Phosphorylation (%) ATR [2]: 12%
Relative Phosphorylation (%) DNA-PK [3]: 2%

GST: glutathione S-transferase alone, control substrate [reference compound]
phosphorylation by ATM in vitro (in words) [1]: did not phosphorylate

MRE11 (SQ4): GST-peptide SASRGGSQRGRAFK (SEQ ID NO:14), S590 (also: GST fusion)
Relative Phosphorylation (%) ATM [1]: <1%

MRE11 (SQ5): GST-peptide SSSKIMSQSQVSKG (SEQ ID NO:15), S648 (also: GST fusion)
Relative Phosphorylation (%) ATM [1]: <1%

full-length WRN protein: purified recombinant full-length WRN protein
phosphorylation by ATM in vitro (in words) [1]: not phosphorylated
phosphorylation by ATR in vitro (in words) [2]: not phosphorylated

wt p53: recombinant glutathione S-transferase-conjugated p53 protein containing the first 101 amino acids of p53
phosphorylation by ATM in vitro (in words) [1]: phosphorylated
ATR/FRP-1 activity towards substrate, less than ATM ([2]; identical experimental conditions): at least 20 fold

B1: PhasI/4E-BP1: full-length 4E-BP1 protein, translation regulator in insulin signaling (protein)
chain: SAGSSCSQTPSRAIPTRRVALGDGVQLPPGDYSTTPGGTLFSTTPGGTRIIYDRKFLMECRNSPVAKTPPKDLPTIPGVTSPTSDEPPMQASQSHLHSSPEDKRAGGEESQFEMDI
phosphorylation by ATM in vitro (in words) [1]: good substrate
phosphorylation by ATM in vitro (in words) ([1]; listed as full-length 4E-BP 1): can phosphorylate

B2: GST-WRN (1099-1198): GST-linked WRN fragment, amino acids 1099-1198 (protein)
chain: STEKKSNLEKLYSYKPCDKISSGSNISKKSIMVQSPEKAYSSSQPVISAQEQETQIVLYGKLVEARQKHANKMDVPPAILATNKILVDMAKMRPTTVENV
modifications: left off: a dimerising Fc or GST
phosphorylation by ATM in vitro (in words) [1]: not phosphorylated
phosphorylation by ATR in vitro (in words) [2]: not phosphorylated

B3: GST-p95 (327-391): larger GST-p95 protein fragment, p95 amino acids 327-391, containing serine 343 (protein)
chain: GHPSTGLKTTTPGPSLSQGVSVDEKLMPSAPVNTTTYVADTESEQADTWDLSERPKEIKVSKMEQ
modifications: also: GST fusion
phosphorylation by ATM in vitro (in words) [1]: excellent in vitro substrate
